Target: WT Atezolizumab scFv-His6, purified
Assay: mass photometry; Refeyn TwoMP, room temperature, 1X PBS; PD-L1 at 7.4, 18.5 and 74 nM; each scFv at 100 nM

WT Atezolizumab scFv-His6, purified
stoichiometry N: 2

From paper PMC9884274
